The target of test [1] is T1, monoclonal 6470 rabbit Fab.
T1 construct: Fab heavy chain entry carries a C-terminal His tag
Kind of test: competitive SPR: 6470 Fab pre-incubated with peptide, injected over immobilised human alpha synuclein monomer and fibrils; %inhibition.
Procedure: (§1) Recombinant human alpha synuclein monomer and pre-formed alpha synuclein fibrils were immobilized on a CM5 chip using a Biacore 3000 instrument (GE Healthcare). Following activation of the carboxymethyl dextran surface by injection of 100 μl of a fresh 1:1 (v/v) mixture of 50 mM N-hydroxysuccimide and 200 mM 1-ethyl-3-(3-dimethylaminopropyl)-carbodiimide at a flow rate of 10 μl/min HBS-EP (GE Healthcare) as running buffer, coupling was achieved by injecting 100 μl of monomer and fibrils, at 5 μM in 10 mM acetate pH 5.0, over separate flow cells. A reference flow cell was activated in the same manner and then all flow cell surfaces were deactivated with a 50 μl pulse of 1 M ethanolamine HCl pH 8.5.
(§2) Peptide solutions were prepared in running buffer at 100 μM and a peptide blank control prepared as a 1 in 100 dilution of DMSO in running buffer. […] Sensograms were recorded for each sample by injecting 30 μl of the mixture at 10 μl/min and recording a report point 5 seconds before the end of the injection. […] Control cycles were alternated with peptide cycles.

In test [2] the target is T1, monoclonal 6470 rabbit Fab. Kind of test: competitive SPR (Biacore 3000): 1 µM peptide with 50 nM Fab; competitor immobilised human alpha synuclein fibrils.
Procedure: as §1, §2
In test [3] the target is T1, monoclonal 6470 rabbit Fab. Kind of test: competitive SPR (Biacore 3000): 1 µM peptide with 50 nM Fab; competitor immobilised human alpha synuclein monomer.
Procedure: as §1, §2
The target in test [4] is T2, human beta synuclein (rPeptide) (human, UniProt Q16143 1-134).
T2 construct: also called rPeptide beta synuclein
Kind of test: Western blot, 1 microgram synuclein.
Procedure: The binding of antibodies raised against human alpha synuclein to human beta synuclein were tested by Western blot using rPeptide beta synuclein. […] The membrane was blocked in PBS with 3% BSA and 0.1% Tween20. […] The blot was washed extensively in PBS with 0.1% Tween20, PBS and water. Chemi-luminescence was measured after addition of ECL Western blot substrate (Pierce).

The target of test [5] is T3, biotinylated peptide corresponding to residues 117 to 126 of human alpha synuclein (peptide PVDPDNEAYE) (human, also: biotinylated, site not given here).
T3 construct: Captured on streptavidin plates for ELISA
T3 peptide: PVDPDNEAYE
Kind of test: streptavidin-capture ELISA on biotinylated peptide PVDPDNEAYE, HRP anti-rabbit IgG Fc, TMB, OD 630 nm. (In general: In an ELISA, binding on a coated surface is turned into a signal by an enzyme label.)

Test [6] addresses T4, purified recombinant human alpha synuclein fibrils (human, UniProt P37840 1-140). As to the kind of experiment: cell-based or functional assay.
In test [7] the target is T5, recombinant full-length human alpha synuclein monomer (human, UniProt P37840 1-140). Kind of test: SPR, Biacore T200, as in Example 3; full-length IgG4P injected.
Procedure: (§3) Interaction kinetics were determined by using surface plasmon resonance technology on a Biacore T200 instrument. Three different ligands including recombinant full-length human alpha synuclein monomer, purified recombinant human alpha synuclein fibrils, and purified recombinant mouse alpha synuclein fibrils, prepared as described herein, were each immobilized on three different flow cells of a CM5 chip surface using amine-coupling chemistry. The three ligands were prepared in 10 mM NaAc, pH 3.5, and immobilized onto separate flow cell surfaces to reach an immobilization level of about 30 response units (RU) for alpha synuclein monomer, about 40 RU for human alpha synuclein fibrils, and about 300 RU for mouse alpha synuclein fibrils respectively, at a flow rate of 10 μI/min. The buffer HBS-EP+(GE healthcare Bio-Sciences AB) was used as running buffer for both ligand immobilization and kinetics assay. […] The surface was regenerated by one injection of 50 mM HCl for 90 s at 10 μI/min, and another injection of 50 mM HCl for 60 s at 10 μI/min. The data were analyzed using the Biacore T200 evaluation software (version 3.0) using the bivalent analyte model with assumed no bulk contribution (RI=0) and global Rmax for IgG format, and 1:1 model with flexible bulk contribution (local RI) and global Rmax.
Test [8] addresses T4, purified recombinant human alpha …. The test is described as above.
Procedure: as §3
Test [9] shares this target. As to the kind of experiment: SPR, Biacore T200, as in Example 3; full-length IgG4P injected; human fibril. For orientation: SPR reads the build-up and loss of mass on a sensor chip optically.
Test [10] deals with T5, recombinant full-length human alpha …. As to the kind of experiment: SPR, Biacore T200, as in Example 3; full-length IgG4P injected; human monomer.
Procedure: as §3
The target in test [11] is T4, purified recombinant human alpha …. Kind of test: affinity for human alpha synuclein fibrils, IgG4P; method not given; Table 6 humanization screen, separate from Table 7B.
Test [12] concerns the target purified recombinant human alpha synuclein fibrils (human, UniProt P37840 1-140). Kind of test: affinity for human alpha synuclein fibrils, IgG4P; method not given.
The target in test [13] is T4, purified recombinant human alpha …. Kind of test: cell-based or functional assay. The source holds these as a separate data set.
Test [14] has the same target. As to the kind of experiment: affinity for human alpha synuclein fibrils, IgG4P; method not given. The source holds these as a separate data set.
Test [15] has as its target T5, recombinant full-length human alpha …. Kind of test: kinetics table of Example 9 (method not named there; same values as Table 7B, SPR).
The target in test [16] is T4, purified recombinant human alpha …. The description is as above.

Substitutions are numbered along the chain they refer to. In names and notes the source's numbering stands. No end group written: not given here.

T2 sequence (Q16143 whole entry): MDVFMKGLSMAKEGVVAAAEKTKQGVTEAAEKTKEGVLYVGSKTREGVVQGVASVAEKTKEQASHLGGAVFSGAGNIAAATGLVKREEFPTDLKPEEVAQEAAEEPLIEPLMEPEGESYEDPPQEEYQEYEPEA

B1: AS119-128 (peptide)
peptide: Ac-DPDNEAYEMP-NH2
notes: Synthetic peptide of human alpha synuclein
With B1, in test [1], the binding result was “no binding”.

B2: AS125-134 (peptide)
peptide: Ac-YEMPSEEGYQ-NH2
notes: as for B1
Broadly, the % inhibition is the relative decrease from the control value, in per cent. Lower therefore signals a weak effect. In the case of B2, the “% inhibition” value came to 52% in test [2] and 34% in [3].

B3: monoclonal 6470 rabbit IgG1 (antibody, V domains shown)
VH: QSVEESGGRLVTPGTPLTLTCTVSGIDLSSHDMYWVRQAPGKGLEYIGAIYASGSTYYASWAKGRFTISKTSTTVDLKMTSLTTEDTATYFCARIHYGNSGGLWGQGTLVTVSS
VL: AIVMTQTPSSKSVAVGDTVTINCQASQSVYKNNYLAWFQQKPGQPPKQLIYGASTLASGVPSRFKGSGSGTQFTLTISDVVCDDAATYYCAGYKGGRNDGFAFGGGTEVVVKR
notes: Recombinant rabbit IgG1/kappa expressed in Expi293 cells
Turning to B3, the binding result in test [4] and in [5] was “no binding” throughout.
As to Ac-SEEGYQDYEP-NH2 (peptide, UniProt P37840 129-138, looked up, synthetic 10-mer peptide) [129-138], in test [1], the binding result is given as “no binding”.

B4: AS113-122 (peptide)
peptide: Ac-LEDMPVDPDN-NH2
notes: as for B1
On to B4, for which the binding result in test [1] is given as “no binding”.

B5: AS121-130 (peptide)
peptide: Ac-DNEAYEMPSE-NH2
notes: as for B1
With B5, the results for the “% inhibition” value in [2] and in [3] were 27% and 20%, respectively.
As to Ac-EGYQDYEPEA-OH (peptide, UniProt P37840 131-140, looked up, synthetic 10-mer peptide) [131-140], the binding result in test [1] is listed as “no binding”.

B6: AS111-120 (peptide)
peptide: Ac-GILEDMPVDP-NH2
notes: as for B1
In the case of B6, the binding result in test [1] is listed as “no binding”.
Consider Ac-PVDPDNEAYE-NH2 [AS117-126], for which the binding result in [1] was “no binding”.

B7: AS109-118 (peptide)
peptide: Ac-QEGILEDMPV-NH2
notes: as for B1
As to B7, in test [1], the binding result is on record as “no binding”.

B8: AS104-113 (peptide)
peptide: Ac-EEGAPQEGIL-NH2
notes: as for B1
B8: in test [1], the binding result is given as “no binding”.

B9: 6470gL3gH23 IgG4P (antibody, V domains shown)
VH: EVQLLESGGGLVQPGGSLRLSCAVSGIDLSSHDMYWVRQAPGKGLEYIGAIYASGSTYYASWAKGRFTISRDNSKNTVYLQMNSLRAEDTAVYYCARIHYGNSGGLWGQGTLVTVSS
VL: DIQMTQSPSSLSASVGDRVTITCQASQSVYKNNYLAWFQQKPGKAPKQLIYGASTLASGVPSRFSGSGSGTQFTLTISSLQPEDFATYYCAGYKGGRNDGFAFGGGTKVEIKR
notes: Full-length humanized human IgG4P; also called VR6470 gL3
Broadly, the koff is a measure of how fast the partners let go of each other. The term kon denotes a measure of how fast the partners come together. Usually Kd stands for the concentration at which binding is half-saturated. Consider B9, for which, in test [6], the “IC50, inhibition of alpha synuclein aggregation induced by fibrils in HEK293F cells expressing alpha synuclein (% pSer129+ cells)” value (“IC50, inhibition … (% pSer129+ cells)” for short) is under 5 nM. The values for the koff in [7] and in test [8] were 0.0242 s⁻¹ and 0.000142 s⁻¹, respectively. Further, the kon in [7] was found to be 1.2e+06 M⁻¹ s⁻¹; in [8] it was 855000 M⁻¹ s⁻¹. Also, the Kd in test [9] is 166 pM; in test [10], 20200 pM; in test [11] it was 148 pM.

B10: VR6470 gL3; gH23-S56N-N102H (antibody, human IgG4 S228P, kappa, V domains shown)
VH: B9 VH with S56N, N102H
VL: B9 VL
notes: Full-length humanized human IgG4P
As for B10, the “IC50, inhibition … (% pSer129+ cells)” value in test [6] is under 5 nM. Moreover, in test [7], the Kd was determined as 4620 pM, the koff amounted to 0.00445 s⁻¹ and the kon worked out at 966000 M⁻¹ s⁻¹. Further, in test [8], the Kd turned out to be 68 pM, the koff was 7.08e-05 s⁻¹ and the kon was determined as 1.04e+06 M⁻¹ s⁻¹.

B11: 6470gL3gH25 (antibody, V domains shown)
VH: B9 VH with Y47W, R71K, N73S
VL: B9 VL
B11: the Kd in test [12] worked out at 76000 pM.

B12: 6470gL3gH36 IgG4P (antibody, V domains shown)
VH: B9 VH with N73S, V78L
VL: B9 VL
notes: Full-length humanized human IgG4P; also called VR6470 gL3; VR6470
In the case of B12, in [6], the “IC50, inhibition … (% pSer129+ cells)” value is under 5 nM. In addition, the “IC50, inhibition of alpha synuclein aggregation induced by fibrils on mouse primary neurons (pSer129 alpha synuclein signal)” value in test [6] is under 4 nM. In addition, in test [13], the “IC50 (nM), HEK cell-based aggregation assay” value was under 5 nM. Also, the Kd was determined as 15100 pM in test [7]; 298 pM in [8]; 166 pM in test [14]; 15100 pM in test [15]; 298 pM in [16]. Also, the koff in test [7] came to 0.0174 s⁻¹; in test [8] it was 0.000317 s⁻¹; in [15] it was 0.0174 s⁻¹; in test [16], 0.000317 s⁻¹. The kon is 1.15e+06 M⁻¹ s⁻¹ in [7], 1.07e+06 M⁻¹ s⁻¹ in test [8], 1.15e+06 M⁻¹ s⁻¹ in test [15] and 1.07e+06 M⁻¹ s⁻¹ in test [16].

B13: 6470gL8gH36 (antibody, V domains shown)
VH: B9 VH with N73S, V78L
VL: B9 VL with Q72D
With B13, the Kd in test [14] was 198 pM.

B14: 6470gL8gH23 (antibody, V domains shown)
VH: B9 VH
VL: B9 VL with Q72D
As for B14, in test [14], the Kd worked out at 246 pM.

B15: VR6470 gL3-N33R; gH36-S56N-N102H (antibody, human IgG4 S228P, kappa, V domains shown)
VH: B9 VH with S56N, N73S, V78L, N102H
VL: B9 VL with N33R
notes: as for B10
Turning to B15, the “IC50, inhibition … (% pSer129+ cells)” value in test [6] is under 5 nM. In [7], the Kd is 1310 pM, the koff was found to be 0.00648 s⁻¹ and the kon amounted to 4.97e+06 M⁻¹ s⁻¹. Besides, in [8], the Kd was 53 pM, the koff was 0.000126 s⁻¹ and the kon stood at 2.39e+06 M⁻¹ s⁻¹.

B16: VR6470 gL3; gH36-S56N-N102H (antibody, human IgG4 S228P, kappa, V domains shown)
VH: B9 VH with S56N, N73S, V78L, N102H
VL: B9 VL
notes: as for B10
Take B16: the “IC50, inhibition … (% pSer129+ cells)” value in test [6] is under 5 nM. In [7], the Kd worked out at 4100 pM, the koff is 0.00488 s⁻¹ and the kon stood at 1.19e+06 M⁻¹ s⁻¹. In test [8], the Kd amounted to 59 pM, the koff was 7.44e-05 s⁻¹ and the kon came out at 1.25e+06 M⁻¹ s⁻¹.

B17: VR6470 gL3-N33R; gH23-S56N-N102H (antibody, human IgG4 S228P, kappa, V domains shown)
VH: B9 VH with S56N, N102H
VL: B9 VL with N33R
notes: as for B10
With B17, in test [6], the “IC50, inhibition … (% pSer129+ cells)” value is under 5 nM. Moreover, in test [7], the Kd worked out at 1710 pM, the koff was found to be 0.00594 s⁻¹ and the kon was 3.48e+06 M⁻¹ s⁻¹. Further, in [8], the Kd was determined as 56 pM, the koff stood at 0.000116 s⁻¹ and the kon was 2.07e+06 M⁻¹ s⁻¹.

B18: AS127-136 (peptide)
peptide: Ac-MPSEEGYQDY-NH2
notes: as for B1
Turning to B18, in test [1], the binding result was “no binding”.

B19: AS123-132 (peptide)
peptide: Ac-EAYEMPSEEG-NH2
notes: as for B1
Turning to B19, the entries for the “% inhibition” value in [2] and in [3] were 54% and 37%, respectively.

Source of the values: patent US20210107971A1 (UCB, published 2021).
